Results reported in patent US20110250202A1.

B1: 2G7 antibody (antibody, V domains shown)
VH: EVQLQQSGAELVKPGASVKLSCTASGFNIKDYFIHWVNQRTKQGLEWIGRIDPEDGETKYAPKFQGKATLTADTTSNTADLQLSSLTSEDTAVYYCVLYYSRSFDYWGQGTTLTVSS
VL: QNVLTQSPAIMSASPGEKVTMTCSASSSVSYMHWYQQKSGTSPKRWIYDTSKLASGVPARFSGSGSGTSYSLTISSMEAEDAATYYCQQWSSNPLTFGAGTKLELKR
B2: 3B12 antibody (antibody, V domains shown)
VH: EVQLQQSGAEFVKPGASVKLSCRVSGFNIKDYYINWVKQRTEQGLEWIGRIDPEDGETKYAPKFQGKATITADTSSNTANLHLSSLTSADTAVYYCASSGYAFAWFLYWGQGTLVTVSA
VL: DILLTQSPAILSVSPGERVSFSCRASQSIGTSIHWYQQRTNGSPRLLIKYASESISGIPSRFSGSGSGTDFTLSINSVESEDIADYYCQQSNRWPFTFGSGTKLEIKR
B3: 2B2 antibody (antibody, V domains shown)
VH: VQLQQSGAEFVKRPGASVKLSCRVSGFNIKDYYINWVKQRTEQGLEWIGRIDPEDGETKYAPKFQGKATITADTSSNTANLHLSSLTSADTAVYYCASSGYAFAWFLYWGQGTLVTVSA
VL: B2 VL

Experiments:
[1] = molecular target: recombinant penicillin binding protein 2a (PBP2a) (Staphylococcus aureus); test: SPR (BIACORE), rPBP2a coupled on CM5 chip, antibody flowed at 0 to 5 nM; culture supernatant 1
[2] = molecular target: recombinant penicillin binding protein 2a (PBP2a) (Staphylococcus aureus); test: SPR (BIACORE), rPBP2a coupled on CM5 chip, antibody flowed at 0 to 5 nM; purified antibody
[3] = molecular target: recombinant penicillin binding protein 2a (PBP2a) (Staphylococcus aureus); test: SPR (BIACORE), rPBP2a coupled on CM5 chip, antibody flowed at 0 to 5 nM; culture supernatant 2

| Binder | Kd [1] | Kd [2] | Kd [3] |
| --- | --- | --- | --- |
| B1 | 0.204 pM | 1.18 pM | 0.0022 pM |
| B2 | 4850 pM | 176 pM | 6050 pM |
| B3 | – | 359 pM | 2150 pM |
